# From US20070099822A1, “Regulation of tissue mineralization and phosphate metabolism by asarm peptides” (priority 2003, published 2007)
# “And” between values parts separate entries of the source, which are not always exact repeats. Identical values can stand only once.
# Tested on: Na+ dependent phosphate co-transport in primary human renal proximal tubule epithelial cells (RPTEC)
# Assay: 33PO4 uptake scintillation proximity assay (SPA) in RPTEC
# Assay type: cell-based
# Procedure: Measurement of ^33PO4 uptake and ^14C-α-methyl D-glucose uptake. A novel technique, scintillation proximity assay (SPA), was used to measure ^33PO4 uptake in-vitro. Human renal proximal-tubule primary cells (RPTEC) were purchased from Clonetics-Biowhittaker (Walkersville, Md.) (cat. no. CC2553) and were cultured and subcultured using the manufacturers recommended protocols, methods, buffers and media (cat. nos. CC3190, CC5034). Also a human renal cell-line (Hu-CL8) was cultured as previously described (Rowe et al. Candidate 56 and 58 kDa protein(s) responsible for mediating the renal defects in oncogenic hypophosphatemic osteomalacia. Bone 18(2):159-169, 1996). For ^33PO4-uptake measurement cells were grown in REBM media supplemented with 5% fetal calf serum (REBM-FCS) to 80% confluence (Clonetics-Biowhitaker, Walkersville, Md.: cat. nos. CC2553, CC3190 and CC5034) and seeded into 96 well (3000 cells/well) cytostar-T scintillating-microplates (Amersham-Pharmacia Biotech, Piscataway, N.J.: cat. no. RPNQ 0162). Cells were then cultured in 200 μL of REBM-FCS media for 24 h. Media was then replaced with serum free media (REBM) and the cells incubated for a further 3-4 h with Hu-MEPE, PTH (1-34) or media control respectively in REBM media. The concentrations of PTH (1-34) and Hu-MEPE were […] and each experimental dose was repeated eight times for statistical analysis. Following incubation media was removed and replaced with either phosphate uptake buffer (PUB) consisting of 150 mM NaCl/1 mM Cacl2/1.8 mM MgSO4/10 mM HEPE pH 7.0/0.1 mM phosphate buffer pH 7.0 and 3 uCi mL^−1 33P as orthophosphoric acid (18 MBq/mL or 5775.7 Gbq/mg stock solution Perkin Elmer, Wellesley, Mass.: cat. no. NEZ080). In order to determine the Na-dependent phosphate co-transporter activity a separate set of control cells were incubated with the same buffer but with choline chloride (150 mM) substituted for NaCl (CHUB buffer). After 10 min at 37° C. the reaction was terminated by removing the PUB and CHUB buffers and replacing with STOP buffer (CHUB buffer without radioisotope). The cytostar scintillation plates were then directly assayed for counts (CPM) using a Hewlett-Packard (Palo Alto, Calif.) Multiplate Top-counter calibrated for ^33P SPA assay. Due to the unique design of the 96 well cytostar-plate radioactive decay in solution is not detected by the counter. In contrast, radioisotope attached to or taken into the cells initiates release of plastic-scintillant photons that are detected by the top-counter photo-multiplier tube. Thus, no washes are required and direct CPM can be counted in living cells. Following CPM determination the buffers were removed from the living cells and fresh media supplemented with cell-titre-96 (Promega-Biotech, Madison, Wis.: cat. no. G5421) cell-number detection media. Cells were then further incubated at 37° C. for 4 h. Conversion of a tetrazolium salt to a colored formazan product by living cells was then measured at 490 nm using a 96 well multi-well spectrophotometer with KC-4 software (absorbance at 490 nm is directly proportional to the number of living cells). Na-dependent ^33P uptake was then calculated by subtracting background counts and the choline chloride non Na-dependent ^33P uptake and results expressed as ^33PO4 femtomoles/10^4-cells/6 min. […]
molecule,measurement,setting,value
Hu-MEPE: purified insect expressed full-length recombinant human MEPE (Matrix Extracellular Phosphoglycoprotein) (protein) PTFQPQTEKTKQSCVEEQRQEEKNKDNIGFHHLGKRINQELSSKENIVQERKKDLSLSEASENKGSSKSQNYFTNRQRLNKEYSISNKENTHNGLRMSIYPKSTGNKGFEDGDDAISKLHDQEEYGAALIRNNMQHIMGPVTAIKLLGEENKENTPRNVLNIIPASMNYAKAHSKDKKKPQRDSQAQKSPVKSKSTHRIQHNIDYLKHLSKVKKIPSDFEGSGYTDLQERGDNDISPFSGDGQPFKDIPGKGEATGPDLEGKDIQTGFAGPSEAESTHLDTKKPGYNEIPEREENGGNTIGTRDETAKEADAVDVSLVEGSNDIMGSTNFKELPGREGNRVDAGSQNAHQGKVEFHYPPAPSKEKRKEGSSDAAESTNYNEIPKNGKGSTRKGVDHSNRNQATLNEKQRFPSKGKSQGLPIPSRGLDNEIKNEMDSFNGPSHENIITHGRKYHYVPHRQNNSTRNKGMPQGKGSWGRQPHSNRRFSSRRRDDSSESSDSGSSSESDGD,Vmax of percentage inhibition of 33PO4-uptake,,53.4%
same,inhibition of Na+ dependent phosphate co-transport,,dose-dependent in-vitro inhibition
same,Km of inhibition of 33PO4-uptake,lineweaver-burke plot,27.4 ng/mL and 27.39 ng/mL
